From patent publication EP4741426A1 (Leto Laboratories Co., Ltd, dated 2026)

Biological target: T1, Fc-fused CD215 fragment
T1 construct: also called CD215 fragment in L-unit (fused with hIgG4Fc); CD215 fragment fused with Fc
Assay: sandwich ELISA of the intact complex in mouse serum: one antibody captures the S-unit, the other detects the Fc portion

T1 sequence (chain, as listed by the source limits assumed): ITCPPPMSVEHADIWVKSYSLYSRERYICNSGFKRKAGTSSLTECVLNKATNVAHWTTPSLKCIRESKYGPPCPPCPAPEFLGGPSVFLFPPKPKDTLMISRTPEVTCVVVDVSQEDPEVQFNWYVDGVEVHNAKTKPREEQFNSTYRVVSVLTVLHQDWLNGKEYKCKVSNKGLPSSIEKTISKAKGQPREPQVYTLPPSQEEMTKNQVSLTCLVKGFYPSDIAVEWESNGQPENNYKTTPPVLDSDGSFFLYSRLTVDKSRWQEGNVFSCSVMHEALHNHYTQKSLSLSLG

binding result: binds
B1: S-unit molecule (PM619) (ligand)
chain: APTSSSTKKTQLQLEHLLLDLQMILNGIQSMHIDATLYTESDVHPSCKVTAMKCFLLELQVISLESGDASIHDTVENLIILANNSLSSNGNVTESGCKECEELEEKNIVEFLNRFITFAQSIISTLT
notes: also called IL-2/15 chimera; modified IL-2 molecule
